# US7067277B1, “Chimeric G proteins and uses thereof” (H. Lundbeck A/S, priority 1999, dated 2006)
# T1: h α2C adr (Homo sapiens, UniProt P18825)
# T1 construct: expressed in transfected cells; host or cells: COS-7
# T1 sequence (P18825 1-462): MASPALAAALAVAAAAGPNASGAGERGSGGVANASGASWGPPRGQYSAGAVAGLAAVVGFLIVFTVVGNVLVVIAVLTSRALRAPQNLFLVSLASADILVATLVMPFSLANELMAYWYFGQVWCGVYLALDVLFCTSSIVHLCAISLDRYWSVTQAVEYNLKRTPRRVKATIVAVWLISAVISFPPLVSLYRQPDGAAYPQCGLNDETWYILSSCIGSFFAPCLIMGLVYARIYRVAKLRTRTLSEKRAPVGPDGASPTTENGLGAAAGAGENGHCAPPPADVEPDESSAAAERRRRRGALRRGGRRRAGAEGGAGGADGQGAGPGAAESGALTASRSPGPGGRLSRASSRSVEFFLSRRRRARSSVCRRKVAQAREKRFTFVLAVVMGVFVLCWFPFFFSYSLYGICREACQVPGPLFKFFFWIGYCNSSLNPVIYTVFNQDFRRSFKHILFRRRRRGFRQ
# T2: h 5HT1A (Homo sapiens, UniProt P08908)
# T2 sequence (P08908 1-422): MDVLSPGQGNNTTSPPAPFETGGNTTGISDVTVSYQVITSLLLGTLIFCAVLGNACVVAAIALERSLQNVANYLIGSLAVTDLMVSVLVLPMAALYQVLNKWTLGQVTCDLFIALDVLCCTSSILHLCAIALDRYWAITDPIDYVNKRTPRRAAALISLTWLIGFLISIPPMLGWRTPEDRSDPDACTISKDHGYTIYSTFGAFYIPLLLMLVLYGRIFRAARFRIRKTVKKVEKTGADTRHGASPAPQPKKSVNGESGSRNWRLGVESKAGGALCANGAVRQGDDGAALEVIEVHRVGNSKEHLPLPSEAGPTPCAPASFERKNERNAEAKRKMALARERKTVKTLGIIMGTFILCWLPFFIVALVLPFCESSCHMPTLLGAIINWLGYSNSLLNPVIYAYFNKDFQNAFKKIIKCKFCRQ
# T3: h α2B adr (Homo sapiens, UniProt P18089)
# T3 construct: expressed in transfected cells; host or cells: COS-7
# T3 sequence (P18089 1-450): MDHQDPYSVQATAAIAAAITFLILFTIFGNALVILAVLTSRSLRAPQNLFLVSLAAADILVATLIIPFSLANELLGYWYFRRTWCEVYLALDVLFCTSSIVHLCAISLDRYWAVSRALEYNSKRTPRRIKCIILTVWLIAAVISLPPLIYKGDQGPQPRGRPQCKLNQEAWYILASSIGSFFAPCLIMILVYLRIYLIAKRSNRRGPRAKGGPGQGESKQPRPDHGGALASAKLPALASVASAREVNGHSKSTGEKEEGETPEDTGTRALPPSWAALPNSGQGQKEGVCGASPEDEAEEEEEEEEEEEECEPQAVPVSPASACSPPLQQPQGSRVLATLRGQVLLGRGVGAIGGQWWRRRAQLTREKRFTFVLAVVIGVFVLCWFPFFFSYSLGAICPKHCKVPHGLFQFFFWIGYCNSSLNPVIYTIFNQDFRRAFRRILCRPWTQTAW
# Columns and labels:
# Test in all cases: Calcium mobilization (FLIPR, Fluo-3) in transfected COS-7 cells
# Format in all cases: cell-based
# h D5 = h D5 (Homo sapiens, UniProt P21918); details: h D5 + chimera in COS-7; agonist DA, max 100 μM
# In short: (§1)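 COS-7 cells were transiently co-transfected (DEAE-dextran) with GPCR and chimeric G protein cDNA, 1:1 for a single chimera or 8:1:1 GPCR:Gαq/z:Gαq/s for the mix, and assayed two days later. Agonist-evoked Fluo-3 fluorescence was read by FLIPR over 3 min at room temperature.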
# h 5HT1D = h 5HT1D (Homo sapiens, UniProt P28221); details: h 5HT1D + chimera in COS-7; agonist 5HT, max 100 μM
# In short: as §1
# h NPFF2 = target: T4, h NPFF2 (Homo sapiens, UniProt Q9Y5X5); details: h NPFF2 + chimera in COS-7; agonist NPFF, max 10 μM
# T4 construct: expressed in transfected cells; host or cells: COS-7
# In short: as §1
# h α2C adr = target: T1, h α2C adr; details: h α2C adr + chimera in COS-7; agonist NE, max 100 μM
# In short: as §1
# h 5HT1A = target: T2, h 5HT1A; details: h 5HT1A + chimera in COS-7; agonist 5HT, max 100 μM
# In short: as §1
# h MCH = h MCH (Homo sapiens, UniProt Q99705); details: h MCH + chimera in COS-7; agonist MCH, max 10 μM
# In short: as §1
# h 5HT6 = h 5HT6 (Homo sapiens, UniProt P50406); details: h 5HT6 + chimera in COS-7; agonist 5HT, max 100 μM
# In short: as §1
# h α2B adr = target: T3, h α2B adr; details: h α2B adr + chimera in COS-7; agonist NE, max 100 μM
# In short: as §1
# Sequence of h 5HT1D (P28221 whole entry): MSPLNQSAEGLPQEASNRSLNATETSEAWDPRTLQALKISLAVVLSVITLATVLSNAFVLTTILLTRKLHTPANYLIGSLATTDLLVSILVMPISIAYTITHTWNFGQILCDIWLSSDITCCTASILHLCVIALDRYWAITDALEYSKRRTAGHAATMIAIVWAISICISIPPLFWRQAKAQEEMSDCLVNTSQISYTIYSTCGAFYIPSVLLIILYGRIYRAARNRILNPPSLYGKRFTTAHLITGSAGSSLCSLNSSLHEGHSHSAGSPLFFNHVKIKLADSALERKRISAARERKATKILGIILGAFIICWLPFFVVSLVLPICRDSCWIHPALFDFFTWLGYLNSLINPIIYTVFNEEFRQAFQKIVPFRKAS
# Sequence of h MCH (Q99705 whole entry): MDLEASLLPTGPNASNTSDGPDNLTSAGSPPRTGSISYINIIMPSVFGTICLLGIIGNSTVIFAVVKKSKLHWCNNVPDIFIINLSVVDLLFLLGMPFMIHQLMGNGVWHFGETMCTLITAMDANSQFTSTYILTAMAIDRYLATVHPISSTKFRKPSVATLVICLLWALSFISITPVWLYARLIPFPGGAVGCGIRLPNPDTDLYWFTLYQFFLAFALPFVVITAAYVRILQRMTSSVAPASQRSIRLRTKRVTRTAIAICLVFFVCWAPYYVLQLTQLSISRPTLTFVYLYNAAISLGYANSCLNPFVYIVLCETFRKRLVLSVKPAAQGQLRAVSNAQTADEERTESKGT
# Sequence of h 5HT6 (P50406 whole entry): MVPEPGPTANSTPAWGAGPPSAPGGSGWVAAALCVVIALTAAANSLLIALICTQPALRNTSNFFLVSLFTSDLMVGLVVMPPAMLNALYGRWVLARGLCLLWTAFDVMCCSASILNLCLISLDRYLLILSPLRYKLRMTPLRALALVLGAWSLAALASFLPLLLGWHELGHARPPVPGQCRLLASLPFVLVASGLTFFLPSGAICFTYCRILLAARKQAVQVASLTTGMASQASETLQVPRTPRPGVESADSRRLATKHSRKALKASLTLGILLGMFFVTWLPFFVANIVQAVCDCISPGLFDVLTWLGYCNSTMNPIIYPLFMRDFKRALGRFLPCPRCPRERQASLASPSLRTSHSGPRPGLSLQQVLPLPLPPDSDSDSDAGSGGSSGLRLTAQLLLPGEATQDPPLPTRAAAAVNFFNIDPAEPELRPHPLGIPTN
# T4 sequence (Q9Y5X5 103-522 limits assumed): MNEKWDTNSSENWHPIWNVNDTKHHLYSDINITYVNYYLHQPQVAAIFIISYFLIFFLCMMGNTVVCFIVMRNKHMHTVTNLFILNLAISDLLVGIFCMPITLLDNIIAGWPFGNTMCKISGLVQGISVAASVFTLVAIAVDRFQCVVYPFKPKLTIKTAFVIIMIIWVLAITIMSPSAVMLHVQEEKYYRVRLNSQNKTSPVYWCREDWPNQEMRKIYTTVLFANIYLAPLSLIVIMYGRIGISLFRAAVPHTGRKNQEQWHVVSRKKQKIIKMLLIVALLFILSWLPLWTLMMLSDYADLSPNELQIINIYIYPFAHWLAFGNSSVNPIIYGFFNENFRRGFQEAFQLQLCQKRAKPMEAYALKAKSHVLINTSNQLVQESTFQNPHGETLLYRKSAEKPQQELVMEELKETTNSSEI
# Sequence of h D5 (P21918 whole entry): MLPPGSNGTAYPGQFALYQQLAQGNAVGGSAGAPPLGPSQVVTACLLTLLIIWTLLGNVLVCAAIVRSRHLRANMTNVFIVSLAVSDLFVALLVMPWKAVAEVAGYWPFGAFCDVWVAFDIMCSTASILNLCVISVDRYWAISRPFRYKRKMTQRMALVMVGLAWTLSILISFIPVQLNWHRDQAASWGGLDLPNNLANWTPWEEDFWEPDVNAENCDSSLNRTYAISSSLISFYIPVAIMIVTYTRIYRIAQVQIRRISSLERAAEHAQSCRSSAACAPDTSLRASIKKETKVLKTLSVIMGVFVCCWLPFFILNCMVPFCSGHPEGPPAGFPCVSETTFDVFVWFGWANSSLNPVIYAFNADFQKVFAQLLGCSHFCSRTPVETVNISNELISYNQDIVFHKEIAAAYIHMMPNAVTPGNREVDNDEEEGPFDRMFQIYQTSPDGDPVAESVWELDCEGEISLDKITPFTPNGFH
Molecule,MAXIMAL SIGNAL (FLUORESCENCE UNITS) (h D5) [fluorescence units],MAXIMAL SIGNAL (FLUORESCENCE UNITS) (h 5HT1D) [fluorescence units],MAXIMAL SIGNAL (FLUORESCENCE UNITS) (h NPFF2) [fluorescence units],MAXIMAL SIGNAL (FLUORESCENCE UNITS) (h α2C adr) [fluorescence units],MAXIMAL SIGNAL (FLUORESCENCE UNITS) (h 5HT1A) [fluorescence units],MAXIMAL SIGNAL (FLUORESCENCE UNITS) (h MCH) [fluorescence units],MAXIMAL SIGNAL (FLUORESCENCE UNITS) (h 5HT6) [fluorescence units],MAXIMAL SIGNAL (FLUORESCENCE UNITS) (h α2B adr) [fluorescence units]
"cGαq/z5: chimeric Gα subunit: C-terminal final 5 amino acids of C. elegans Gαq replaced with those of hGαz (SEQ ID NO: 1) (protein, C. elegans) MACCLSEEAREQKRINQEIEKQLQRDKRNARRELKLLLLGTGESGKSTFIKQMRIIHGQGYSEEDKRAHIRLVYQNVFMAIQSMIRAMDTLDIKFGNESEELQEKAAVVREVDFESVTSFEEPYVSYIKELWEDSGIQECYDRRREYQLTDSAKYYLSDLRRLAVPDYLPTEQDILRVRVPTTGIIEYPFDLEQIIFRMVDVGGQRSERRKWIHCFENVTSIMFLVALSEYDQVLVECDNENRMEESKALFRTIITYPWFTNSSVILFLNKKDLLEEKILYSHLADYFPEYDGPPRDPIAAREFILKMFVDLNPDADKIIYSHFTCATDTENIRFVFAAVKDTILQHNLKYIGLC",657,414,7566,4143,1997,2699,1289,4983
"cGαq/z9: C. elegans Gαq with Gαz portion of the C-terminal tail extended to 9 amino acids (SEQ ID NO: 2) (protein, C. elegans) MACCLSEEAREQKRINQEIEKQLQRDKRNARRELKLLLLGTGESGKSTFIKQMRIIHGQGYSEEDKRAHIRLVYQNVFMAIQSMIRAMDTLDIKFGNESEELQEKAAVVREVDFESVTSFEEPYVSYIKELWEDSGIQECYDRRREYQLTDSAKYYLSDLRRLAVPDYLPTEQDILRVRVPTTGIIEYPFDLEQIIFRMVDVGGQRSERRKWIHCFENVTSIMFLVALSEYDQVLVECDNENRMEESKALFRTIITYPWFTNSSVILFLNKKDLLEEKILYSHLADYFPEYDGPPRDPIAAREFILKMFVDLNPDADKIIYSHFTCATDTENIRFVFAAVKDTILQNNLKYIGLC",797,504,4578,3874,3139,3332,2287,5138
